Test results as given in US20240000899A1, “THERAPEUTIC USEFUL AGAINST ANTIMICROBIAL RESISTANT AGENTS” (priority 2022, published 2024).
Entries after “also recorded” stand apart in the source; their conditions may differ.

Test system: Staphylococcus aureus ATCC 6538
Assay: Modified ASTM E2315 test of low pH therapeutic with AMPs, acid neutralized after one minute
Format: cell-based
Text: Since the reaction speed of the two different MOAs are different, a modified test protocol was developed, which is summarized below. • a. […] Heretofore, it has been believed that AMPs are unstable in low pH environments. Mixture of dry powder immediately prior to use is believed to address concerns regarding minimization of in vitro stability. • b. The prepared AMP solution was then mixed with the bacteria containing media. After one minute the acid solution was neutralized. This simulates the short antimicrobial period for the elevated proton concentration in vivo. The bacteria population was measured to determine efficacy after one minute. • c. The AMPs retained in the solution are not expected to stop their antimicrobial activity after acid neutralization, so a second bacteria population measurement was made after 24 hours. [table]

B1: lactoferrin (protein, UniProt P02788 20-710, looked up)
Lactotransferrin: GRRRSVQWCAVSQPEATKCFQWQRNMRKVRGPPVSCIKRDSPIQCIQAIAENRADAVTLDGGFIYEAGLAPYKLRPVAAEVYGTERQPRTHYYAVAVVKKGGSFQLNELQGLKSCHTGLRRTAGWNVPIGTLRPFLNWTGPPEPIEAAVARFFSASCVPGADKGQFPNLCRLCAGTGENKCAFSSQEPYFSYSGAFKCLRDGAGDVAFIRESTVFEDLSDEAERDEYELLCPDNTRKPVDKFKDCHLARVPSHAVVARSVNGKEDAIWNLLRQAQEKFGKDKSPKFQLFGSPSGQKDLLFKDSAIGFSRVPPRIDSGLYLGSGYFTAIQNLRKSEEEVAARRARVVWCAVGEQELRKCNQWSGLSEGSVTCSSASTTEDCIALVLKGEADAMSLDGGYVYTAGKCGLVPVLAENYKSQQSSDPDPNCVDRPVEGYLAVAVVRRSDTSLTWNSVKGKKSCHTAVDRTAGWNIPMGLLFNQTGSCKFDEYFSQSCAPGSDPRSNLCALCIGDEQGENKCVPNSNERYYGYTGAFRCLAENAGDVAFVKDVTVLQNTDGNNNEAWAKDLKLADFALLCLDGKRKPVTEARSCHLAMAPNHAVVSRMDKVERLKQVLLHQQAKFGRNGSDCPDKFCLFQSETKNLLFNDNTECLARLHGKTTYEKYLGPQYVAGITNLKKCSTSPLLEACEFLRK
With B1 the “1-min Efficacy (log)” value (bacteria population after one minute, then acid neutralized, no soiling, single-replicant) was 0.05 log, the “Efficacy on S. aureus, conclusion in words” value (comparison of Table 3 examples) was “minimal efficacy; also recorded: not effective” and the “24-hour Efficacy (log)” value (second bacteria population measurement after 24 hours, acid neutralized after one minute) was 0.16 log.
